Data set [1] has as its target integrin receptors on the angiogenic blood vessels in the tumor site. Put plainly: cell-based or functional assay.
Data set [2] relates to FX (proteolytic activation of FX by FVIIa). As to the kind of experiment: FX activation assay. It counts as biochemical. The settings on record: in the presence of factor VII (a) and Ca2+ ions. As for the experimental part:
The FX activation activity was tested using a modified procedure based on a previous report in the art. Briefly, to each well of a black 96-well plate was added 100 μL of BSA, tTF, and tTF-RGD with different concentrations in Tris-buffered saline containing 0.1% BSA. […] After 5 min of incubation at room temperature, FX (Haematologic Technologies, Inc.) was added to reach a final concentration of 30 nM and reacted for an additional 5 min. The reaction was quenched by addition of 20 μL of 100 mmol/L EDTA solution before 10 μL of 6-amino-1-naphthalenesulfonamide-based (ANSN) fluorogenic substrate (10 mM) (Haematologic Technologies, Inc.) was added to the mixture. Three minutes later, the fluorescence intensities were measured with a microplate reader (excitation=352 nm, emission=470 nm).

Data set [3] has as its system CT26 tumor-bearing mice. Put plainly: Coagulation initiation after intratumoral injection, CT26 tumors. It counts as in vivo. As for the experimental part:
(§1) The coagulation initiation capability of tTF-RGD was investigated by treating CT26 tumor-bearing mice with 1.25 mg/kg of BSA, tTF, and tTF-RGD via intratumoral injection. Twenty-four hours later, the tumors were collected and subjected to H&E staining. To characterize the coagulation triggered by a lower dose of the tTF-RGD, 0.4 mg/kg of BSA, tTF, and tTF-RGD were administered into CT26 tumor-bearing mice via p.t. injection. Furthermore, mice bearing CT26 tumors were also treated with BSA, tTF and tTF-RGD (1.25 mg/kg) via i.v. injection every other day for 3 times in total. Twenty-four hours post injection of the last dose, the tumors and other major organs were collected and subjected to H&E staining.

The subject of data set [4] is CT26 subcutaneous tumor. As to the kind of experiment: Anti-tumor efficacy, subcutaneous CT26 model, local treating strategy. The note with it: tTF or tTF-RGD p.t. 0.4 mg/kg, aPD-1 1 mg/kg i.v., 3 doses. It counts as in vivo, Balb/C mice. The method, then:
(§2) Anti-tumor efficacy of tTF-RGD+P-aPD-1: To establish a subcutaneous CT26 colon cancer model, Balb/C mice (6-8 weeks, male) were subcutaneously inoculated with 1×10^6 CT26 cells on the right flank. When the tumor volume reached100-150 mm^3, the mice were received different treatments, including saline, aPD-1, tTF-RGD, P-aPD-1, tTF+P-aPD-1 and tTF-RGD+P-aPD-1. For the local treating strategy, tTF or tTF-RGD (0.4 mg/kg) was firstly given by p.t. injection. Half an hour later, P-aPD-1 was administered via i.v. injection at the dose of 1 mg/kg. The treatment was conducted every other day for 3 times in total. For the systemic treating strategy, tTF or tTF-RGD (1.25 mg/kg) was first given by i.v. injection. One hour later, P-aPD-1 was administered via i.v. injection at the dose of 0.3 mg/kg. The treatment was conducted every other day for 3 times in total. The antibodies used in other treatment groups are also given at an equivalent dose. The tumor growth (calculated as: length×width^2×0.5) and body weight were monitored every other day. Mice were euthanized once the tumor volume exceeded 2 cm^3.

Data set [5] has as its system CT26 tumors. Put plainly: Recruitment of P-aPD-1 to tumor, i.v. injected protein (systemic strategy). It counts as in vivo, mice. The method, then:
(§3) Recruitment of P-aPD-1 by tTF-RGD treatment: The recruitment of P-aPD-1 to tumor sites by tTF-RGD-initiated coagulation was studied using IVIS. P-aPD-1 was reacted with sulfo-Cy5.5-NHS ester at room temperature for 1 h and washed three times with PBS to remove unreacted dyes. For the local treating strategy, BSA, tTF, and tTF-RGD were given at the dose of 0.4 mg/kg via p.t. injection to mice bearing CT26 tumors, followed by i.v. injection of approximately 1×10^8 P-aPD-1 (aPD-1:1 mg/kg). For the systemic treatment strategy, BSA, tTF, and tTF-RGD were given at the dose 1.25 mg/kg via i.v. injection to mice bearing CT26 tumors, followed by i.v. injection of approximately 1×10^8 P-aPD-1 (aPD-1:1 mg/kg). […] At 24 h, the mice were euthanized, and tumors were collected and visualized ex vivo.

Data set [6] has as its system CT26 tumor-bearing mice. Put plainly: Coagulation after three i.v. doses, H&E of tumors and major organs. It counts as in vivo. The method, then: as §1
For a further data set, the system named is PDX breast tumors. Put plainly: Recruitment of DiR-loaded PM-NP to PDX tumor (IVIS). It counts as in vivo, mice. The settings on record: ex vivo, 24 h, i.v. 1.25 mg/kg. As for the experimental part:
Recruitment of PM-NP by tTF-RGD-triggered coagulation: The recruitment of PM-NP to tumor sites by tTF-RGD-initiated coagulation was studied using IVIS. NPs were loaded with DiR and coated with platelet membranes. The PM-NP was washed three times with PBS to remove unreacted dyes. tTF or tTF-RGD was given at the dose of 1.25 mg/kg via i.v. injection to mice bearing PDX breast tumors. One hour later, 2 mg of NPs and PM-NPs were administered via i.v. injection. […] At 24 h, the mice were euthanized, and tumors were collected and visualized ex vivo.

In data set [7] the test system is CT26 tumors. Further details: species or system mice. The settings on record: mouse, in vivo, iv, 1.25 mg/kg. The method, then: Tumor vasculature-targeting and coagulation initiating ability tTF-RGD: The tumor vasculature-targeting ability of tTF-RGD was investigated using IVIS. Briefly, tTF and tTF-RGD were labeled with sulfo-Cy5.5-NHS ester and dialyzed against PBS at 4° C. to remove unreacted dyes. Balb/C mice (6-8 weeks, male) were inoculated with 1×10^6 CT26 cells. When the tumor volumes reached 100-150 mm^3 (calculated as length×width^2×0.5), Cy5.5-labeled tTF or tTF-RGD were injected at the dose of 1.25 mg/kg via i.v. route to mice bearing CT26 tumors. […] At 24 h, the mice were euthanized, and tumors were collected and visualized ex vivo. The fluorescence was analyzed using Living Image Software v.4.3.1 (Perkin Elmer).

Data set [8] concerns CT26 tumors. Put plainly: Recruitment of P-aPD-1 to tumor, p.t. injected protein (local strategy). It counts as in vivo, mice. As for the experimental part: as §3
For data set [9], the system named is CT26 tumor-bearing mice. Put plainly: Coagulation after p.t. injection of lower dose, CT26 tumors. The settings on record: 0.4 mg/kg. It counts as in vivo. As for the experimental part:
as §1

Data set [10] deals with CT26 tumors. As to the kind of experiment: Tumor coagulation by Cy5.5-labeled fibrinogen accumulation (IVIS). Format: in vivo, mice. The method, then: To assess the tumor vasculature-coagulation triggered by tTF-RGD, fibrinogen was labeled with sulfo-Cy5.5-NHS ester and dialyzed against PBS to remove unreacted dyes. BSA, tTF or tTF-RGD were injected at the dose of 1.25 mg/kg via i.v. route to mice bearing CT26 tumors, followed by i.v. injection of 1 nmol of fibrinogen. […] At 24 h, the mice were euthanized, and tumors were collected and visualized ex vivo.

The test system of data set [11] is CT26 subcutaneous tumor. Put plainly: Anti-tumor efficacy, subcutaneous CT26 model, systemic treating strategy. It counts as in vivo, Balb/C mice. The settings on record: tTF or tTF-RGD i.v. 1.25 mg/kg, aPD-1 0.3 mg/kg i.v., 3 doses. The method, then:
as §2

Data set [12] deals with TM00096 human breast tumor PDX. Put plainly: Coagulation in PDX tumors, H&E staining. Format: in vivo, mice. The note with it: i.v. injection with PM-NP, 24 h. The source says: Establishment of the PDX model: To establish the PDX model, TM00096 tumor samples were first propagated on Rag2-II2rg double knockout immunodeficient mice (R2G2® mice, 6-8 weeks, female) and then passaged to nude mice (6-8 weeks, female). Briefly, tumor tissues from R2G2® mice with TM00096 tumors were cut into small pieces, dispersed in the 1:1 mixture of DMEM medium and Matrigel® supplemented with FBS and antibiotics. The tiny tumor tissues were mixed well and placed on ice packs before being injected into the right flank of the nude mice using an 18-gauge needle (100 μL/mouse).
Next, it was determined if tTF-RGD can recruit PM-NP to tumor sites. To validate the translational potential of our treatment strategy, a clinically relevant PDX mouse model was established (FIG. 7C). TM00096 human breast tumor tissues were implanted on the flank of the immunodeficient mice. To affirm that systemic injection of tTF-RGD can initiate the tumor-selective coagulation on the PDX model, tTF+PM-NP or tTF-RGD+PM-NP were administered to the mice via i.v. injection as described above in the CT26-bearing mice model. Twenty-four hours later, the PDX tumors were collected and subjected to H&E staining. […] In order to visualize the tumor-selective accumulation of PM-NP, DiR dyes were encapsulated into NPs, which were further coated with platelet membranes. […]

The molecule “truncated tissue factor-Arg-Gly-Asp (RGD) fusion protein (tTF-RGD) (from UniProt P13726 33-250)” gave a mean fluorescence intensity (MFI) of tumor tissues ex vivo, 24 h after i.v. injection of Cy5.5-labeled protein, against the tTF group in [1] of 1.62 fold.

B1: tTF-RGD: fused protein of truncated tissue factor (extracellular domain of TF) and RGD motif; SEQ ID NO: 9 (protein)
chain: SGTTNTVAAYNLTWKSTNFKTILEWEPKPVNQVYTVQISTKSGDWKSKCFYTTDTECDLTDEIVKDVKQTYLARVFSYPAGNVESTGSAGEPLYENSPEFTPYLETNLGQPTIQSFEQVGTKVNVTVEDERTLVRRNNTFLSLRDVFGKDLIYTLYYWKSSSSGKKTAKTNTNEFLIDVDKGENYCFSVQAVIPSRTVNRKSTDSPVECMGQEKGEFRRGD
With B1, the FX activation activity result in data set [2] is “dose-dependent FX activation activity”. For the same molecule, in the data set on CT26 tumor-bearing mice [3] (1.25 mg/kg, data not shown), the “hemorrhage and thrombus formation in tumors” value was “significant hemorrhage and thrombus formation”. Further, in the data set with CT26 tumor-bearing mice [3] (24 h post-injection), the coagulation in tumors entry is “severe coagulation”. Moreover, in the data set with CT26 subcutaneous tumor [4], the median survival time was 30 days and the tumor growth inhibition result is “negligible tumor-inhibiting activity”. In addition, the “accumulation of P-aPD-1 in tumor tissues, increase versus tTF group” value in the data set on CT26 tumors [5] (ex vivo, 24 h, protein i.v. 1.25 mg/kg) came to 1.89 fold. In the data set on CT26 tumors [5] (i.v. injection), the “Rhodamine B-labeled P-aPD-1 fluorescence in resected tumors compared to BSA and tTF” value was “More fluorescence signals”. Further, the “distribution of Cy5.5-labeled P-aPD-1 at tumor sites (imaging) compared to tTF and BSA” value in the data set on CT26 tumors [5] (protein i.v. 1.25 mg/kg then i.v. P-aPD-1, time-course) is reported as “increased distribution of P-aPD-1 at the tumor sites”. For the same molecule, in the data set with CT26 tumor-bearing mice [6] (24 h after three doses of i.v. injection, 1.25 mg/kg), the “coagulation in tumor tissues (H&E)” value is recorded as “initiated apparent coagulation”. The “hemorrhage or thrombus in other major organs (H&E)” value with CT26 tumor-bearing mice [6] (after 3 doses of i.v. injection) is on record as “no obvious hemorrhage or thrombus in other major organs”. In addition, in the data set on CT26 tumor-bearing mice [6] (i.v. 1.25 mg/kg every other day for three times, data not shown), the hemorrhage / thrombosis result is on record as “did not induce severe hemorrhage but could trigger thrombosis”. In the data set on PDX breast tumors, the “MFI of tumors, accumulation of PM-NP, increase versus tTF treatment” value is listed as 5.05 fold. Besides, in the data set on CT26 tumors [7], the “mean fluorescence intensity (MFI) of tumor tissues relative to tTF group” value came out at 1.62 fold and the “tumor targeting ability, fluorescence signals at tumor site” value is “much stronger tumor targeting ability than tTF”. In addition, the “fluorescence signals of P-aPD-1 in tumor tissues, increase versus tTF group” value in the data set on CT26 tumors [8] (ex vivo, 24 h, protein p.t. 0.4 mg/kg) was found to be 1.87 fold. Moreover, the “Rhodamine B-labeled P-aPD-1 fluorescence in resected tumors compared to BSA and tTF” value with CT26 tumors [8] (p.t. injection) was “More fluorescence signals”. The “accumulation of Cy5.5-labeled P-aPD-1 at tumor site (imaging)” value in the data set with CT26 tumors [8] (protein p.t. 0.4 mg/kg then i.v. P-aPD-1, from 4 h post injection) was “strong tendency to accumulate at the tumor site”. In the data set with CT26 tumor-bearing mice [9], the “coagulation / hemorrhage in tumors” value is on record as “effectively triggered obvious coagulation without severe hemorrhage”. The “accumulation of Cy5.5-fibrinogen in tumors” value with CT26 tumors [10] (24 h post i.v. injections, protein 1.25 mg/kg) is “strong signals”. For the same molecule, the “MFI of Cy5.5-fibrinogen in tumors, increase compared with tTF group” value in the data set on CT26 tumors [10] (ex vivo, 24 h, i.v. 1.25 mg/kg) is given as 2.37 fold. Also, the median survival time in the data set on CT26 subcutaneous tumor [11] stood at 27 days. Moreover, the “coagulation in PDX tumor tissues (H&E)” value in data set [12] is listed as “could induce coagulation in PDX tumor tissues without severe hemorrhage”.

The record behind these values is patent US20260226138A1, “COMBINATION TUMOR THERAPY WITH THROMBOSIS INITIATION AND PLATELET RECRUITMENT” (Wisconsin Alumni Research Foundation, priority 2022, published 2026).
